Our source for the percent of tetherin bound relative to Vpu WT (100%) values is publication PMC3107245.

Holding throughout (assay): co-IP; 293T cells co-transfected with 1 µg Vpu-cmyc variant and 2 µg HA-tetherin; lysis in 50 mM Tris-HCl pH 7.4, 150 mM NaCl, 1% Triton X-100, 1% CHAPS; IP with anti-myc antibody and protein G agarose at 4°C; blot with anti-HA; tetherin quantified by densitometry, normalized by tubulin, Vpu WT = 100%
For experiment [1], the target named is Vpu TM CΔ2I (HIV-1 NL4-3).
The target in experiment [2] is Vpu TM NΔ2I (HIV-1 NL4-3).
In experiment [3] the target is Vpu TM M3IV (HIV-1 NL4-3).
Experiment [4] deals with Vpu TM M3IT (HIV-1 NL4-3).

Sequence of HA-tetherin (Q10589 1-161): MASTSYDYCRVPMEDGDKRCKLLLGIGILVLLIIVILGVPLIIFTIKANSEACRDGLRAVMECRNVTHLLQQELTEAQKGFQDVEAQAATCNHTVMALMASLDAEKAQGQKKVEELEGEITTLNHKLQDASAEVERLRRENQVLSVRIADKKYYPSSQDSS

For “HA-tetherin (from UniProt Q10589 1-161) (natural protein)”, the percent of tetherin bound relative to Vpu WT (100%) in experiment [1] was 25%; in experiment [2] it was 50%; in experiment [3] it was more than 80%; in experiment [4], 10%.
